Numbering of substitutions follows the chain as printed.
B1: consensus (structured_RNA)
RNA: GGUCACGUCUCAAUCAACUCCCAAAGGCUUUUCUAAGAGCCACCCAUCAACAGCUCGCAGUCAAG
B2: consensus (structured_RNA)
RNA: B1 RNA with U29C, U30C, C33U, A35U, A38G
B3: consensus (structured_RNA)
RNA: B1 RNA with C28U, U29C, C33U, A35C, A38G
B4: consensus (structured_RNA)
RNA: B1 RNA with C28U, G39A
B5: consensus (structured_RNA)
RNA: B1 RNA with C28U, U29C, U30C, A38G
B6: consensus (structured_RNA)
RNA: B1 RNA with U29C, U30C, A35U, A38G
B7: consensus (structured_RNA)
RNA: B1 RNA with C28U, U29C, U30C, A35C, A38G
B8: consensus (structured_RNA)
RNA: B1 RNA with U29C, U30C, C33U, A35G, A38G
B9: consensus (structured_RNA)
RNA: B1 RNA with C28U, U29C, A35C, A38G, G39A
B10: consensus (structured_RNA)
RNA: B1 RNA with C28U, U29C, A35U, A38G, G39A
B11: consensus (structured_RNA)
RNA: B1 RNA with C33U, A35U
B12: consensus (structured_RNA)
RNA: B1 RNA with A35U, A38G
B13: consensus (structured_RNA)
RNA: B1 RNA with U29C, G37A, A38G
B14: consensus (structured_RNA)
RNA: B1 RNA with U30C, C33U, A35C, A38G
B15: consensus (structured_RNA)
RNA: B1 RNA with C33U, A35C, G37A
B16: consensus (structured_RNA)
RNA: B1 RNA with A35C
B17: consensus (structured_RNA)
RNA: B1 RNA with C28U, U29C, C33U, A35C, G37A, A38G
B18: consensus (structured_RNA)
RNA: B1 RNA with C28U, U29C, U30C, A35C, A38G, G39A
B19: consensus (structured_RNA)
RNA: B1 RNA with C28U, U29C, G37A, A38G, G39A
B20: consensus (structured_RNA)
RNA: B1 RNA with C28U, C33U, A35C
B21: consensus (structured_RNA)
RNA: B1 RNA with U30C, C33U
B22: consensus (structured_RNA)
RNA: B1 RNA with U30C, C33U, A35C
B23: consensus (structured_RNA)
RNA: B1 RNA with C28U, U29C, U30C, A38G, G39A
B24: consensus (structured_RNA)
RNA: B1 RNA with U29C, U30C, C33U, A38G
B25: consensus (structured_RNA)
RNA: B1 RNA with C28U, C33U, A35C, G39A
B26: consensus (structured_RNA)
RNA: B1 RNA with U29C, A35G, G37A, A38G
B27: consensus (structured_RNA)
RNA: B1 RNA with U29C, A35U, A38G
B28: consensus (structured_RNA)
RNA: B1 RNA with C33U, A35U, A38G
B29: consensus (structured_RNA)
RNA: B1 RNA with U29C, C33U, A35G, G37A, A38G
B30: consensus (structured_RNA)
RNA: B1 RNA with C28U, U30C, C33U, G39A
B31: consensus (structured_RNA)
RNA: B1 RNA with C33U, G37A, A38G
B32: consensus (structured_RNA)
RNA: B1 RNA with C28U, U29C, A38G
B33: consensus (structured_RNA)
RNA: B1 RNA with C28U, U29C, U30C, A35U, A38G, G39A
B34: consensus (structured_RNA)
RNA: B1 RNA with A35C, G37A
B35: consensus (structured_RNA)
RNA: B1 RNA with C28U, U29C, C33U, G37A, A38G
B36: consensus (structured_RNA)
RNA: B1 RNA with C28U, U29C, U30C, C33U, A38G
B37: consensus (structured_RNA)
RNA: B1 RNA with C28U, U29C, A35U, G37A, A38G, G39A
B38: consensus (structured_RNA)
RNA: B1 RNA with C28U, C33U, G39A
B39: consensus (structured_RNA)
RNA: B1 RNA with U29C, C33U, A35C, G37A, A38G
B40: consensus (structured_RNA)
RNA: B1 RNA with C28U, U29C, U30C, C33U, A35C, A38G
B41: consensus (structured_RNA)
RNA: B1 RNA with C28U, U29C, A35C, G37A, A38G, G39A
B42: consensus (structured_RNA)
RNA: B1 RNA with C28U, U29C, C33U, A35U, A38G
B43: consensus (structured_RNA)
RNA: B1 RNA with U30C, A38G
B44: consensus (structured_RNA)
RNA: B1 RNA with C28U, U29C, U30C, C33U, A35U, A38G, G39A
B45: consensus (structured_RNA)
RNA: B1 RNA with C28U, U29C, A35C, A38G
B46: consensus (structured_RNA)
RNA: B1 RNA with U29C, A35U, G37A, A38G
B47: consensus (structured_RNA)
RNA: B1 RNA with C28U, U30C, C33U, A35C, G39A
B48: consensus (structured_RNA)
RNA: B1 RNA with U30C, C33U, A35U
B49: consensus (structured_RNA)
RNA: B1 RNA with C28U, U29C, C33U, A35U, G37A, A38G, G39A
B50: consensus (structured_RNA)
RNA: B1 RNA with G37A
B51: consensus (structured_RNA)
RNA: B1 RNA with C33U, A35C, G37A, A38G
B52: consensus (structured_RNA)
RNA: B1 RNA with C28U, U29C, G37A, A38G
B53: consensus (structured_RNA)
RNA: B1 RNA with U30C, A35C
B54: consensus (structured_RNA)
RNA: B1 RNA with U30C
B55: consensus (structured_RNA)
RNA: B1 RNA with U29C, U30C, A35G, A38G
B56: consensus (structured_RNA)
RNA: B1 RNA with C28U, U29C, C33U, G37A, A38G, G39A
B57: consensus (structured_RNA)
RNA: B1 RNA with C33U, G37A
B58: consensus (structured_RNA)
RNA: B1 RNA with C28U, U29C, C33U, A35U, A38G, G39A

Molecular target: GST-SBP-SLBP (stem-loop binding protein) (Homo sapiens, UniProt Q14493 1-270)
Assay: targeted RNA Bind-n-Seq; RBNS binding buffer: 25 mM Tris pH 7.5, 150 mM KCl, 3 mM MgCl2, 0.1% Tween, 0.5 mg/mL BSA, 1 mM DTT; 27 nM protein, 750 pM RNA pool; temperature not stated; high values mean tight binding
Conditions: protein: recombinant; tags: N-terminal GST and SBP (pGEX6P1-SBP)
Procedure, shortened: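 The GST-SBP-tagged protein was expressed in Rosetta(DE3) pLysS E. coli, glutathione-purified and incubated at 27 nM with 750 pM of a designed, T7-transcribed RNA oligo pool in RBNS binding buffer. Bound RNA was reverse transcribed with a 10-nucleotide barcoded primer, PCR-amplified and sequenced on a MiSeq with 200-cycle paired-end reads. Reads were joined with FLASH, aligned with HISAT2 and collapsed by barcode. The binding signal is the DEseq log2 fold change of read counts per sequence.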

Row | Binder | binding signal [log2 fold change]
1 | B1 | 1.33 ± 0.16
2 | B2 | 3.48 ± 0.162
3 | B3 | 1.25 ± 0.15
4 | B4 | 0.796 ± 0.151
5 | B5 | 3.27 ± 0.13
6 | B6 | 3.46 ± 0.16
7 | B7 | 3.16 ± 0.131
8 | B8 | 3.37 ± 0.174
9 | B9 | 1.31 ± 0.141
10 | B10 | 0.816 ± 0.166
11 | B11 | 0.854 ± 0.146
12 | B12 | 0.933 ± 0.168
13 | B13 | 3.74 ± 0.124
14 | B14 | 3.57 ± 0.122
15 | B15 | 3.5 ± 0.119
16 | B16 | 0.979 ± 0.14
17 | B17 | 3.26 ± 0.121
18 | B18 | 3.44 ± 0.13
19 | B19 | 3.73 ± 0.129
20 | B20 | 0.623 ± 0.163

Row | Binder | binding signal [log2 fold change]
21 | B21 | 3.5 ± 0.152
22 | B22 | 3.73 ± 0.129
23 | B23 | 3.48 ± 0.135
24 | B24 | 3.52 ± 0.16
25 | B25 | 0.928 ± 0.165
26 | B26 | 3.32 ± 0.133
27 | B27 | 1.28 ± 0.157
28 | B28 | 1.3 ± 0.179
29 | B29 | 3.34 ± 0.155
30 | B30 | 3.2 ± 0.125
31 | B31 | 3.16 ± 0.137
32 | B32 | 1.09 ± 0.185
33 | B33 | 3.13 ± 0.132
34 | B34 | 3.24 ± 0.124
35 | B35 | 3.18 ± 0.125
36 | B36 | 3.26 ± 0.128
37 | B37 | 3.14 ± 0.132
38 | B38 | 0.759 ± 0.157
39 | B39 | 3.7 ± 0.124
40 | B40 | 3.33 ± 0.12

Row | Binder | binding signal [log2 fold change]
41 | B41 | 3.5 ± 0.113
42 | B42 | 0.724 ± 0.177
43 | B43 | 3.19 ± 0.123
44 | B44 | 3.37 ± 0.117
45 | B45 | 0.935 ± 0.161
46 | B46 | 3.55 ± 0.131
47 | B47 | 3.44 ± 0.114
48 | B48 | 3.17 ± 0.142
49 | B49 | 3.2 ± 0.118
50 | B50 | 3.29 ± 0.116
51 | B51 | 3.17 ± 0.125
52 | B52 | 3.19 ± 0.133
53 | B53 | 3.23 ± 0.14
54 | B54 | 3.2 ± 0.135
55 | B55 | 3.16 ± 0.18
56 | B56 | 3.5 ± 0.12
57 | B57 | 3.48 ± 0.133
58 | B58 | 0.994 ± 0.148

Reference: publication PMC5892938, “SARNAclust: Semi-automatic detection of RNA protein binding motifs from immunoprecipitation data”
